Test system: Lenti-X 293T cells
Assay: YFP fluorescence quenching anion reporter plate reader assay of engineered receptors stimulated with acetylcholine or a non-native ligand
Type: cell-based
Settings: for percent quench of YFP fluorescence, 30 nM TC-6683: TC-6683 30 nM; for percent quench of YFP fluorescence, 300 nM TC-6683: TC-6683 300 nM; for percent quench of YFP fluorescence, 3 uM TC-6683: TC-6683 3 uM; for percent quench of YFP fluorescence, 30 uM TC-6683: TC-6683 30 uM; for percent quench of YFP fluorescence, 100 uM TC-6683: TC-6683 100 uM; for percent quench of YFP fluorescence, 10 uM ach: acetylcholine 10 uM; for percent quench of YFP fluorescence, 100 uM ach: acetylcholine 100 uM; for percent quench of YFP fluorescence, 1 mM ach: acetylcholine 1 mM; for percent quench of YFP fluorescence, 3 mM ach: acetylcholine 3 mM
How it was run: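 Lenti-X 293T cells carrying a YFP anion reporter were transiently transfected with channel DNA and assayed the next day in HEPES-buffered ECS at pH 7.2. Ligand (acetylcholine or non-native ligand) was added in NaI-substituted ECS. Percent quench was the mean of the last 10 s relative to the 15 s pre-addition baseline.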

B1: CODA333: engineered chimeric LGIC receptor, L131S in SEQ ID NO: 33 (protein)
chain: MRCSPGGVWLALAASLLHVSLQGEFQRKLYKELVKNYNPLERPVANDSQPLTVYFSLSLLQIMDVDEKNQVLTTNIWLQMSWTDHYLQWNVSEYPGVKTVRFPDGQIWKPDILLYNSADERFDATFHTNVSVNSSGHCQYLPPGIFKSSCPMDLKNFPMDVQTCKLKFGSWSYGGWSLDLQMQEADISGYIPNGEWDLVGIPGKRSERFYECCKEPYPDVTFTVTMRRRMGYYLIQMYIPSLLIVILSWISFWINMDAAPARVGLGITTVLTMTTQSSGSRASLPKVSYVKAIDIWMAVCLLFVFSALLEYAAVNFVSRQHKELLRFRRKRRHHKSPMLNLFQEDEAGEGRFNFSAYGMGPACLQAKDGISVKGANNSNTTNPPPAPSKSPEEMRKLFIQRAKKIDKISRIGFPMAFLIFNMFYWIIYKIVRREDVHNQ
modifications: synthetic sequence of chimeric LGIC
YFP fluorescence quenching using CNL001 (1 nM CNL001, first column): 76.165%
YFP fluorescence quenching using CNL001 (1 nM CNL001, second column): 78.463%
YFP fluorescence quenching using TC-5619/Bradanicline (1 nM brd): −0.85%
YFP fluorescence quenching using TC-5619/Bradanicline (3 nM brd): −2.05%
YFP fluorescence quenching using Varenicline (3 nM var, first column): −4.782
YFP fluorescence quenching using Varenicline (3 nM var, second column): 1.048
YFP fluorescence quenching using CNL001 (10 nM CNL001, first column): 79.349%
YFP fluorescence quenching using CNL001 (10 nM CNL001, second column): 78.238%
YFP fluorescence quenching using TC-5619/Bradanicline (10 nM brd): −2.8%
YFP fluorescence quenching using TC-5619/Bradanicline (30 nM brd): −2.07%
YFP fluorescence quenching using Facinicline (30 nM fac): 6.27
YFP fluorescence quenching using Varenicline (30 nM var, first column): 2.084
YFP fluorescence quenching using Varenicline (30 nM var, second column): 5.022
YFP fluorescence quenching using CNL001 (50 nM CNL001, first column): 80.221%
YFP fluorescence quenching using CNL001 (50 nM CNL001, second column): 81.789%
YFP fluorescence quenching using ABT-126 (50 nM abt): −20.99%
YFP fluorescence quenching using CNL001 (100 nM CNL001, first column): 81.855%
YFP fluorescence quenching using CNL001 (100 nM CNL001, second column): 80.766%
YFP fluorescence quenching using CNL002 (100 nM CNL002): −15.44%
YFP fluorescence quenching using ABT-126 (100 nM abt): −16.21%
YFP fluorescence quenching using AZD-0328 (100 nM azd0328): 38.49%
YFP fluorescence quenching using TC-5619/Bradanicline (100 nM brd): 30.34%
YFP fluorescence quenching using ABT-126 (300 nM abt): −13.34%
YFP fluorescence quenching using AZD-0328 (300 nM azd0328): 67.13%
YFP fluorescence quenching using TC-5619/Bradanicline (300 nM brd): 50.56%
YFP fluorescence quenching using Facinicline (300 nM fac): 69.8
YFP fluorescence quenching using Varenicline (300 nM var, first column): 12.162
YFP fluorescence quenching using Varenicline (300 nM var, second column): 12.979
YFP fluorescence quenching using Varenicline (500 nM var, first column): 29.238
YFP fluorescence quenching using Varenicline (500 nM var, second column): 25.614
YFP fluorescence quenching using CNL001 (1 uM CNL001, first column): 81.707%
YFP fluorescence quenching using CNL001 (1 uM CNL001, second column): 82.665%
YFP fluorescence quenching using CNL002 (1 uM CNL002): 15.21%
YFP fluorescence quenching using ABT-126 (1 uM abt): 4.96%
YFP fluorescence quenching using TC-5619/Bradanicline (1 uM brd): 72.42%
YFP fluorescence quenching using TC-6987 (1 uM tc6987): −3.87
YFP fluorescence quenching using Varenicline (1 uM var, first column): 43.863
YFP fluorescence quenching using Varenicline (1 uM var, second column): 39.346
YFP fluorescence quenching using TC-6987 (3 uM tc6987): −20.2
YFP fluorescence quenching using TC-6987 (5 uM tc6987): −15.25
YFP fluorescence quenching using Facinicline (10 uM fac): 80.07
YFP fluorescence quenching using TC-6987 (10 uM tc6987): 4.92
YFP fluorescence quenching using AZD-0328 (30 uM azd0328): 80.61%
YFP fluorescence quenching using Facinicline (30 uM fac): 81.35
YFP fluorescence quenching using TC-6987 (30 uM tc6987): 14.75
YFP fluorescence quenching using TC-6987 (50 uM tc6987): 21.33
YFP fluorescence quenching using TC-6987 (100 uM tc6987): 29.7
YFP fluorescence quenching using TC-6987 (300 uM tc6987): 20.79
YFP fluorescence quenching using TC-6987 (500 uM tc6987): 44.37
percent quench of YFP fluorescence, 30 nM TC-6683: −23.88%
percent quench of YFP fluorescence, 300 nM TC-6683: −21.46%
percent quench of YFP fluorescence, 3 uM TC-6683: −21.07%
percent quench of YFP fluorescence, 30 uM TC-6683: −16.15%
percent quench of YFP fluorescence, 100 uM TC-6683: −18.96%
percent quench of YFP fluorescence, 10 uM ach: −10.11%
percent quench of YFP fluorescence, 100 uM ach: −10.05%
percent quench of YFP fluorescence, 1 mM ach: 32.11%
percent quench of YFP fluorescence, 3 mM ach: 57.37%

B2: CODA334: engineered chimeric LGIC receptor, L131Q in SEQ ID NO: 33 (protein)
chain: MRCSPGGVWLALAASLLHVSLQGEFQRKLYKELVKNYNPLERPVANDSQPLTVYFSLSLLQIMDVDEKNQVLTTNIWLQMSWTDHYLQWNVSEYPGVKTVRFPDGQIWKPDILLYNSADERFDATFHTNVQVNSSGHCQYLPPGIFKSSCPMDLKNFPMDVQTCKLKFGSWSYGGWSLDLQMQEADISGYIPNGEWDLVGIPGKRSERFYECCKEPYPDVTFTVTMRRRMGYYLIQMYIPSLLIVILSWISFWINMDAAPARVGLGITTVLTMTTQSSGSRASLPKVSYVKAIDIWMAVCLLFVFSALLEYAAVNFVSRQHKELLRFRRKRRHHKSPMLNLFQEDEAGEGRFNFSAYGMGPACLQAKDGISVKGANNSNTTNPPPAPSKSPEEMRKLFIQRAKKIDKISRIGFPMAFLIFNMFYWIIYKIVRREDVHNQ
modifications: synthetic sequence of chimeric LGIC
YFP fluorescence quenching using CNL001 (1 nM CNL001, first column): 76.165%
YFP fluorescence quenching using CNL001 (1 nM CNL001, second column): 78.463%
YFP fluorescence quenching using TC-5619/Bradanicline (3 nM brd): 41.92%
YFP fluorescence quenching using Varenicline (3 nM var, first column): −5.192
YFP fluorescence quenching using Varenicline (3 nM var, second column): −4.327
YFP fluorescence quenching using CNL001 (10 nM CNL001, first column): 79.349%
YFP fluorescence quenching using CNL001 (10 nM CNL001, second column): 78.238%
YFP fluorescence quenching using TC-5619/Bradanicline (30 nM brd): 63.65%
YFP fluorescence quenching using Facinicline (30 nM fac): 83.07
YFP fluorescence quenching using Varenicline (30 nM var, first column): −0.688
YFP fluorescence quenching using Varenicline (30 nM var, second column): 0.672
YFP fluorescence quenching using CNL001 (50 nM CNL001, first column): 80.221%
YFP fluorescence quenching using CNL001 (50 nM CNL001, second column): 81.789%
YFP fluorescence quenching using ABT-126 (50 nM abt): 23.65%
YFP fluorescence quenching using CNL001 (100 nM CNL001, first column): 82%
YFP fluorescence quenching using CNL001 (100 nM CNL001, second column): 80.766%
YFP fluorescence quenching using CNL002 (100 nM CNL002): 49.9%
YFP fluorescence quenching using ABT-126 (100 nM abt): 61.83%
YFP fluorescence quenching using AZD-0328 (100 nM azd0328): 80.55%
YFP fluorescence quenching using Facinicline (100 nM fac): 85.36
YFP fluorescence quenching using ABT-126 (300 nM abt): 76.44%
YFP fluorescence quenching using AZD-0328 (300 nM azd0328): 83.15%
YFP fluorescence quenching using TC-5619/Bradanicline (300 nM brd): 64.85%
YFP fluorescence quenching using Facinicline (300 nM fac): 84.19
YFP fluorescence quenching using Varenicline (300 nM var, first column): 75.189
YFP fluorescence quenching using Varenicline (300 nM var, second column): 74.923
YFP fluorescence quenching using Varenicline (500 nM var, first column): 79.048
YFP fluorescence quenching using Varenicline (500 nM var, second column): 80.337
YFP fluorescence quenching using CNL001 (1 uM CNL001, first column): 81.707%
YFP fluorescence quenching using CNL001 (1 uM CNL001, second column): 82.665%
YFP fluorescence quenching using CNL002 (1 uM CNL002): 80.72%
YFP fluorescence quenching using ABT-126 (1 uM abt): 77.68%
YFP fluorescence quenching using TC-6987 (1 uM tc6987): 74.1
YFP fluorescence quenching using Varenicline (1 uM var, first column): 79.766
YFP fluorescence quenching using Varenicline (1 uM var, second column): 76.836
YFP fluorescence quenching using TC-6987 (10 uM tc6987): 81.7
YFP fluorescence quenching using CNL002 (30 uM CNL002): 80.97%
YFP fluorescence quenching using AZD-0328 (30 uM azd0328): 82.53%
YFP fluorescence quenching using Facinicline (30 uM fac): 82.75
YFP fluorescence quenching using TC-6987 (500 uM tc6987): 80.18
percent quench of YFP fluorescence, 30 nM TC-6683: −17.99%
percent quench of YFP fluorescence, 300 nM TC-6683: −23.26%
percent quench of YFP fluorescence, 3 uM TC-6683: −18.84%
percent quench of YFP fluorescence, 30 uM TC-6683: −16.92%
percent quench of YFP fluorescence, 100 uM TC-6683: −15.59%
percent quench of YFP fluorescence, 10 uM ach: −2.63%
percent quench of YFP fluorescence, 30 uM ach (acetylcholine 30 uM): 30.06%
percent quench of YFP fluorescence, 100 uM ach: 71.27%
percent quench of YFP fluorescence, 1 mM ach: 79.66%
percent quench of YFP fluorescence, 3 mM ach: 74.9%

Source: patent US20240317834A1, “COMPOSITIONS AND METHODS FOR NEUROLOGICAL DISEASES” (CODA BIOTHERAPEUTICS, INC., priority 2020, published 2024)
